These results are taken from paper doi:10.1101/2024.02.06.578578.

This test deals with SkSGLc, SkSGL from Sanguibacter keddieii (KEGG locus tag, Sked_30460) with a C-terminal His6-tag (Sanguibacter keddieii). Briefly: SEC. In general terms: In gel filtration, larger molecules generally elute earlier.

“SkSGLc, SkSGL from Sanguibacter keddieii (KEGG locus tag, Sked_30460) with a C-terminal His6-tag (enzyme)” gave a stoichiometry N of 2.

In general, stoichiometry N refers to a count of units in the complex or per binding partner.
